Experimental data as given in paper PMC6692582.
Each block holds one substance with its values, some of them ahead of it.

Key:
[1] = biological target: N-terminal NanoLuc-tagged VEGFR2 (wild type) (UniProt P35968); assay: FRET or BRET; NanoBRET time course, intact HEK293T cells transiently transfected with wild-type or tyrosine phosphorylation-deficient NanoLuc-VEGFR2; 3 or 20 nM VEGF121a-TMR; every 30 s at 37°C
[2] = biological target: tyrosine phosphorylation-deficient NanoLuc-VEGFR2 (UniProt P35968); assay: as above
[3] = biological target: N-terminal NanoLuc-tagged VEGFR2 (wild type) (UniProt P35968); assay: FRET or BRET; NanoBRET kinetics, membranes from NanoLuc-VEGFR2 HEK293T cells (10 μg per well); five concentrations of fluorescent ligand (1–20 nM); every 30 s for 90 min at 37°C; KD kinetic (koff/kon)
[4] = biological target: tyrosine phosphorylation-deficient NanoLuc-VEGFR2 (UniProt P35968); assay: FRET or BRET; NanoBRET kinetics, membranes from a stable cell line expressing tyrosine phosphorylation-deficient NanoLuc-VEGFR2; four concentrations of VEGF121a-TMR (3–20 nM), 90 min at 37°C; KD kinetic (koff/kon)
[5] = biological target: N-terminal NanoLuc-tagged VEGFR2 (wild type) (UniProt P35968); assay: FRET or BRET; NanoBRET saturation binding, membranes from NanoLuc-VEGFR2 HEK293T cells (5 μg per well); increasing fluorescent ligand with or without 100 nM corresponding unlabelled ligand; 60 min, 37°C; HeBSS/0.1% BSA pH 7.4
[6] = biological target: NanoLuc-VEGFR2 (Homo sapiens) (UniProt P35968); assay: NanoBRET kinetics, intact cells; conditions: cited from earlier work
[7] = biological target: N-terminal NanoLuc-tagged VEGFR2 (wild type) (UniProt P35968); assay: FRET or BRET; NanoBRET kinetics, membranes from NanoLuc-VEGFR2 HEK293T cells (10 μg per well); five concentrations of fluorescent ligand (1–20 nM); every 30 s for 90 min at 37°C; KD kinetic (koff/kon); remark: listed apart in the source
[8] = biological target: N-terminal NanoLuc-tagged VEGFR2 (wild type) (UniProt P35968); assay: FRET or BRET; NanoBRET saturation binding, wild-type NanoLuc-VEGFR2 membranes (5 μg per well), HeBSS/0.1% BSA pH 6.0 (5.8–6.2); with or without 100 nM VEGF165b; 60 min, 37°C
[9] = biological target: N-terminal NanoLuc-tagged VEGFR2 (wild type) (UniProt P35968); assay: FRET or BRET; NanoBRET saturation binding, wild-type NanoLuc-VEGFR2 membranes (5 μg per well), HeBSS/0.1% BSA pH 7.4 (matched with pH 6.0); with or without 100 nM VEGF165b; 60 min, 37°C
[10] = biological target: N-terminal NanoLuc-tagged VEGFR2 (wild type) (UniProt P35968); assay: FRET or BRET; NanoBRET kinetics, NanoLuc-VEGFR2 membranes preincubated with 0.01% DMSO (30 min, 37°C); four concentrations of VEGF165b-TMR (3–20 nM), 90 min at 37°C; KD kinetic (koff/kon)
[11] = biological target: N-terminal NanoLuc-tagged VEGFR2 (wild type) (UniProt P35968); assay: FRET or BRET; NanoBRET kinetics, NanoLuc-VEGFR2 membranes preincubated with 1 μM cediranib (30 min, 37°C); four concentrations of VEGF165b-TMR (3–20 nM), 90 min at 37°C; KD kinetic (koff/kon)
[12] = biological target: N-terminal NanoLuc-tagged VEGFR2 (wild type) (UniProt P35968); assay: FRET or BRET; NanoBRET kinetics, wild-type NanoLuc-VEGFR2 membranes (10 μg per well), HeBSS/0.1% BSA pH 6.0 (5.8–6.2); four concentrations of VEGF165b-TMR (3–20 nM), 37°C; KD kinetic (koff/kon)
[13] = biological target: N-terminal NanoLuc-tagged VEGFR2 (wild type) (UniProt P35968); assay: FRET or BRET; NanoBRET kinetics, wild-type NanoLuc-VEGFR2 membranes (10 μg per well), HeBSS/0.1% BSA pH 7.4 (matched with pH 6.0); four concentrations of VEGF165b-TMR (3–20 nM), 37°C; KD kinetic (koff/kon)
[14] = biological target: N-terminal NanoLuc-tagged VEGFR2 (wild type) (UniProt P35968); assay: FRET or BRET; NanoBRET kinetics, intact HEK293T cells stably expressing NanoLuc-VEGFR2, pretreated with 0.01% DMSO (30 min, 37°C); four concentrations of VEGF165b-TMR (3–20 nM), every 30 s for 90 min at 37°C; constants from a global association fit to the initial 20 min; KD kinetic (koff/kon)
[15] = biological target: N-terminal NanoLuc-tagged VEGFR2 (wild type) (UniProt P35968); assay: FRET or BRET; NanoBRET kinetics, intact HEK293T cells stably expressing NanoLuc-VEGFR2, pretreated with 1 μM cediranib (30 min, 37°C); four concentrations of VEGF165b-TMR (3–20 nM), every 30 s for 90 min at 37°C; constants from a global association fit to the initial 20 min; KD kinetic (koff/kon)
[16] = biological target: N-terminal NanoLuc-tagged VEGFR2 (wild type) (UniProt P35968); assay: FRET or BRET; NanoBRET displacement, membranes from NanoLuc-VEGFR2 HEK293T cells (5 μg per well); five fixed concentrations of fluorescent ligand with increasing VEGF-Ax (0.03–30 nM); 60 min, 37°C; Ki by Cheng–Prusoff

VEGF-Ax, sequence (P15692 whole entry): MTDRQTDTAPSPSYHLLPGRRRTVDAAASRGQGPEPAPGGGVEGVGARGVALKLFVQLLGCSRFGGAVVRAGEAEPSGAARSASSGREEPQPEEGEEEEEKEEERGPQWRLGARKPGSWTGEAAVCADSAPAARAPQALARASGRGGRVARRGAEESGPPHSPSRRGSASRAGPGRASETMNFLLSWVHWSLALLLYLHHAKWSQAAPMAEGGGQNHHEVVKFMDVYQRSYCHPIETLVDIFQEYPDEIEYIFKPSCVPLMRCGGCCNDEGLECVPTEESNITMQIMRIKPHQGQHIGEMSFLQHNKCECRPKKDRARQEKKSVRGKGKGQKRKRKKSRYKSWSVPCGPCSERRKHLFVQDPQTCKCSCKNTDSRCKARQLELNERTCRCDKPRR
VEGF165a-TMR, sequence (P15692 whole entry): as above

- Kd [8]: 4.43 nM
- Kd [9]: 5.29 nM
- Kd [10]: 9.68 nM
- koff [10]: 0.000383 s⁻¹
- kon [10]: 44800 M⁻¹ s⁻¹
- residence time [10]: 43.5 min
- Kd [11]: 8 nM
- koff [11]: 0.00035 s⁻¹
- kon [11]: 45700 M⁻¹ s⁻¹
- residence time [11]: 47.6 min
- Kd [12]: 13.3 nM
- koff [12]: 0.000983 s⁻¹
- kon [12]: 73200 M⁻¹ s⁻¹
- residence time [12]: 17 min
- Kd [3]: 9.21 nM
- koff [3]: 0.000483 s⁻¹
- kon [3]: 61500 M⁻¹ s⁻¹
- residence time [3]: 34.5 min
- Kd [13]: 10.2 nM
- koff [13]: 0.000383 s⁻¹
- kon [13]: 39000 M⁻¹ s⁻¹
- residence time [13]: 43.5 min
- Kd [5]: 5.55 nM
- AUC of the NanoBRET time course at 5 nM [14]: 0.71
- AUC of the NanoBRET time course at 20 nM [14]: 1.8
- Kd [14]: 19.8 nM
- koff [14]: 0.00135 s⁻¹
- kon [14]: 71000 M⁻¹ s⁻¹
- residence time [14]: 12.3 min
- AUC of the NanoBRET time course at 5 nM [15]: 0.77
- AUC of the NanoBRET time course at 20 nM [15]: 2.04
- Kd [15]: 43.6 nM
- koff [15]: 0.00152 s⁻¹
- kon [15]: 43800 M⁻¹ s⁻¹
- residence time [15]: 11 min
Substance: VEGF165b-TMR (from UniProt P15692-8 1-191) (ligand)

- pKi (fluorescent probe VEGF121a-TMR) [16]: 10.3
- pKi (fluorescent probe VEGF165a-TMR) [16]: 10.2
- pKi (fluorescent probe VEGF165b-TMR) [16]: 9.96
Substance: VEGF-Ax (ligand)

Further lines, the substance ahead of its results:

Substance: VEGF121a-TMR (from UniProt P15692-9 1-147) (ligand)
- AUC of the NanoBRET time course at 3 nM [1]: 2.61
- AUC of the NanoBRET time course at 20 nM [1]: 7.28
- AUC of the NanoBRET time course at 3 nM [2]: 3.54
- AUC of the NanoBRET time course at 20 nM [2]: 9.79
- Kd [3]: 3.85 nM
- koff [3]: 0.000317 s⁻¹
- kon [3]: 85500 M⁻¹ s⁻¹
- residence time [3]: 52.6 min
- Kd [4]: 6.85 nM
- koff [4]: 0.000617 s⁻¹
- kon [4]: 104000 M⁻¹ s⁻¹
- residence time [4]: 27 min
- Kd [5]: 2.58 nM

Substance: VEGF165a-TMR (from UniProt P15692)
- Kd [6]: 6.64 nM

Substance: VEGF165a-TMR (from UniProt P15692-4 1-191) (ligand)
- Kd [3]: 2.21 nM
- Kd [7]: 2.4 nM
- Kd [5]: 0.31 nM
